From the RNAGym collection of RNA variant scans (doi:10.7554/elife.80360)

B1: HDV Ribozyme (parent)
chain: GGCCGGCAUGGUCCCAGCCUCCUCGCUGGCGCCGGCUGGGCAACAUUCCGAGGGGACCGUCCCCUCGGUAAUGGCGAAUGGGACCCA

Variants of: B1
Assay: self-cleavage, relative activity (ratio to wild type); higher = more cleavage; co-transcriptional

Row | Variant | self-cleavage
1 | C36A A42C | 0.0583
2 | C36A A42G | 0.113
3 | C36U G68U | 0.786
4 | G35C A78C | 0.0519
5 | C36A A56U | 0.229
6 | G35C G52U | 0.318
7 | G35C G52C | 0.128
8 | G35C G52A | 0.233
9 | G35C C64G | 0.426
10 | G35U G76U | 0.595
11 | G35U G76C | 0.62
12 | C36G U37G | 0.213
13 | G35C G74C | 0.17
14 | C36A G81U | 0.0523
15 | C36A A45U | 0.0475
16 | G35C G82A | 0.147
17 | C36A G80C | 0.178
18 | G35U U47C | 0.189
19 | C36U C48A | 0.623
20 | C36A C84U | 0.163
21 | C36G A77C | 0

Row | Variant | self-cleavage
22 | G35U G68U | 0.309
23 | C36G A87C | 0.146
24 | C36G A71G | 0.138
25 | C36G A71C | 0.0475
26 | C36A G59U | 0.138
27 | G35C U37C | 0.18
28 | C36G C49A | 0.138
29 | C36A U65G | 0.394
30 | C36A C75A | 0.175
31 | C36G G52A | 0.271
32 | G35C C66G | 0.228
33 | G35C C36G | 0.0978
34 | C36A G39A | 0.113
35 | C36G G55A | 0.117
36 | C36U G50A | 0.673
37 | C36U G50C | 0.612
38 | C36G C57U | 0.128
39 | G35U G38C | 0.0536
40 | G35U G38U | 0
41 | G35C G38U | 0.0875
42 | C36G U47C | 0.128

Row | Variant | self-cleavage
43 | C36U C75A | 0.203
44 | G35C G68A | 0.17
45 | C36A C66A | 0.151
46 | C36U C41A | 0.683
47 | C36U C41G | 0.45
48 | C36U C49G | 0.607
49 | C36U C49U | 0.743
50 | C36G C85A | 0.251
51 | C36G C85G | 0.161
52 | C36U A45G | 0.522
53 | G35U G67A | 0.506
54 | G35U G67C | 0.41
55 | C36U G39C | 0.119
56 | G35U C61A | 0.428
57 | C36A G82U | 0.0839
58 | G35U A42U | 0.246
59 | G35U A42G | 0.17
60 | G35C C86A | 0.212
61 | C36U A71U | 0.471
62 | C36G C61G | 0.0386
63 | C36G C61U | 0.121

Row | Variant | self-cleavage
64 | C36G G59C | 0.0755
65 | G35C C62U | 0.0665
66 | G35C C62G | 0.0594
67 | G35U C58G | 0.323
68 | C36G G38A | 0.143
69 | C36A A70U | 0.163
70 | C36A A70G | 0.119
71 | G35C C85G | 0.0923
72 | C36G G67C | 0.148
73 | G35U U72A | 0.172
74 | G35C G80U | 0.043
75 | G35C G80C | 0.0992
76 | G35C G80A | 0.212
77 | G35U C62G | 0.259
78 | G35C G81U | 0.0739
79 | C36G U65G | 0.244
80 | G35U G81U | 0.156
81 | G35U G81C | 0.133
82 | G35U G81A | 0.108
83 | G35C G40A | 0.271
84 | C36G C66A | 0.162
